This is an account of results in the supplement of paper PMC12636428.

For this data set, the system named is Saccharomyces cerevisiae. The data set is described as follows: transcriptional activation domain activity (GFP:mCherry ratio, weighted mean of sorted bins, harmonized to initial dataset scale) (arbitrary fluorescence ratio units); higher = stronger transcriptional activation. Conditions: beta-estradiol 1 µM; induction time 4 h. In short, it runs like this:
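The listed activation activity is a read-weighted mean of bin median fluorescence, averaged across barcodes and linearly mapped onto the initial dataset scale. Barcoded tiles, fused to an estradiol-inducible synthetic transcription factor, were integrated at URA3 in yeast diploids bearing a GFP reporter. Cells were held 4 hours at 30 °C in SC with 1 uM beta-estradiol, sorted into 8 GFP:mCherry bins, and sequenced, and tiles with fewer than 50 reads were excluded.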
As to “PFLTTYPESYVHRAFEFGRVFDYRWTVNWRMIPEKTFVSTWFAHQLLLCHVIA”, the “transcriptional activation domain activity” value was found to be 56500.
“MFPFVFLSSFLSCFRLYSFNTCYIFSLILLCWYTFLLSYNGSLFCYPMIVYFL”: the “transcriptional activation domain activity” value came to 70400.
Consider “GPLLFVEIRAGFFPLYYPFSFLCLSGFVFELGHYPSGSFVPGVLLSWSLNFII”, for which the “transcriptional activation domain activity” value was determined as 53700.
As for “LFLFIFLVAESYLGFSCWVLYSNVPLYAHVADLAGTKKPFVLPVPFMNVINGG”, the figure is 48000; as for “MLWGDTQILVVLLHYILPTYQFPRFYFYYMYLPLRSWLLVDNPFLFSYSALIQ”, 63200.
On to “LQQTKRQHSAPSQISANENNIYNLGTLEEFVSSGDLTDLYHTLWNDNTSYPFL”, for which the “transcriptional activation domain activity” value came to 128000.
As for “PPWVDDCNPFLTDVYYLGSLLKRTFFVVYELTYKDFLFLLTLPVHRTPFLLCN”, the figure is 50900.
“MPGHALVDIQNTFGCTFIGLVISILYLILNFGNVENLEYNMWAMNLQVDITGL”: the “transcriptional activation domain activity” value was 56500.
As for “PVPAAAASPVAVPQPAPEQSKPVVKEEKKPEKKVDEERKRKGTKEGQQQQQQQ”, the figure is 16700.
For the sequence “CLHFQFSLLFLLCLYVCVGWIFYACILSYLPPLLFIVSFVTILQRTAFCFGEE”, the “transcriptional activation domain activity” value amounted to 45000.
Under “WLLTFFTVDFLPNRDLRILLANWLNTLIHDPILKKHTDGLGIVRRLVKVAKEC” stands 48400; under “MSYIRSCLSFSPFFSFLFLFLPFFFLSFLPFSMCFLCKAFECLFVGGIKHMEH”, 37400; under “EAPAAEPVKETETAAEAAPAEAPAEAAAEETKEEKKEEKKEEKVKASKVGRRL”, 44900.
As for “QVCTLLGASGGSSFVRGGSYLQGGYGLNTADLWRRNFLVLVGWILFFWLLQTI”, the figure is 54800; as for “FQAQGDDELTVVEGDALWIIEQEGDEWWKCRNIKGDEGVVCVVIPRPTGAGRL”, 36300.
“SRKGESGREDSGGRDKESRKRSRRDKTPVADERRRDGTRAAEERDRKRRGDHR”: the “transcriptional activation domain activity” value was 49100.
On to “AAAPAAANDGFHEVHHNRGGRGRGGHQGEGRGGYRGRGGPRGEFRGRGRGRGR”, for which the “transcriptional activation domain activity” value turned out to be 42000.
As for “VFIAVLSCVGTCGASYLCISFMPLVCHNSPYYTPLSSLIWSCRAGLRCLYLWI”, the “transcriptional activation domain activity” value turned out to be 55300.
On to “MGCICVILARCYCQTLNHFLTVLLLFRSVIFVLFLLFHFFVFVYVLFFFSFII”, for which the “transcriptional activation domain activity” value was 42000.
Under “RGDTAAPGAEDDVELHYVCFVKGGDGRLWELDGRRKGPLERGRLGEGEDVLSE” stands 27800; under “ILTILYKSNAVFFLEWMVFVAYQIFNLFAWVFNCWGKILPKVGSFFLYVSLVS”, 63000.
“LVYLARSLFFSLLFKRLYILYFLEVCIWHIFGFFFYLITLCANLVMPLLLCSV”: the “transcriptional activation domain activity” value was 57600.
For the sequence “MLLGRHIFLYFILSFFLSFWLHTIPYLLLDFTYYHNPIISTLPTSYFFSIFLI”, the “transcriptional activation domain activity” value is 72200.
On to “MFLLFSLCVDFKGVLGGWLLFFFLLAFDGFTRLLWGDVICFFFYLLLFATTHV”, for which the “transcriptional activation domain activity” value came out at 57600.
Under “TRTRKWWLRTVWACTWLIPSFLLSSVGRMKRPDVRLAWREKVTIFWLIFLFNG” stands 68900.
For the sequence “GGGEAQKPRPAAERKKQEANGHAHHDHSQGNHHGHRHKHAKDAKKAEDGGARK”, the “transcriptional activation domain activity” value is 32500.
As for “ALLCLCWAPEPRGLLALGIGCLVFLFLYFYPCCFFFFFFYSYLCFCTVVLFFP”, the figure is 53300; as for “ATSVWLRVFFIAVSSIAVIPILNFWGLCKLWGFIFFFSCGNVYVGLLFTVVLF”, 62300.
On to “PINALCIILSDDSIKALLQEEFPLKQYRDICNKLDVYLSRRRILGILLYMYPT”, for which the “transcriptional activation domain activity” value was determined as 72700.
For the sequence “GNAREMRASSARAAGFRRRGRQASNTRAAGNEREGGEQRARGRGASSARAGGI”, the “transcriptional activation domain activity” value is 43400.
Consider “KIHLVNLAQVTVFFIHRLLYGIIPLFEIATCAYYPFLVSLWHINYLLFYIVMF”, for which the “transcriptional activation domain activity” value was 42000.
As for “VLRMFFVSQANTFVILSLLGLCLPSRALPAAFGFSPSYAPLLIRLYLAQTLFT”, the figure is 25800.
As for “FLRRVFQNHPEVMFKPGPFYMGDGIIGLGANWICICWTLFVCVLLSFPTILPV”, the figure is 66700; as for “LRWVLLPLCLFFSVCLEAHWPSISLAIVIIAYNELHMSSHWFLRGFCYAWGNA”, 36800.
Under “GSVKKKLASSSRTGQACDRCKVRKIRCDPRPEGCSPCAQNRTPCKTTDRITGR” stands 41900.
“IFHLPLECPFPLTNRRNACALIENFLDAVKYHRHLFPYWRRRAIKYFIWREWF”: the “transcriptional activation domain activity” value is 32300.
On to “DNPEQLMKVFLSRNLISTGVIYSEHKCNMMVRLVWLFLCFLHRKSVLPEIRGL”, for which the “transcriptional activation domain activity” value was 59500.
As to “MISWLLRFFWLPGGLFFIWCFFSVPFFALRFCSCRHSFFTTFFLCFFYFYFVT”, the “transcriptional activation domain activity” value was determined as 67100.
As to “MLLLFVYPCSPLSHCSSFYSYYLIIKLLLFYDIKNLSFFFFLEYFDLWWLITI”, the “transcriptional activation domain activity” value was 78500.
For the sequence “TSSPRRNSPPTRSTSSSPPSSPTSPYPSSSPPRPAPSPRPCARRGPKTPPSRP”, the “transcriptional activation domain activity” value amounted to 30300.
Take “MAIDIFFCLAVHIPTCVNLWGHVRTILYVQLVTVMYPSHFLFYFLFLLFYFFL”: the “transcriptional activation domain activity” value was determined as 34200.
As for “LQHRTWLIHWSLFPLFNYEQARETLTELFFSAPYINTIQTNCPWILRYLAAAV”, the figure is 28100; as for “SDSDEEDEDERAEDAEVDTSASVNRLRDAQAEVETGDVTRRIAIVNLDWDHIK”, 29200; as for “IRLMPFYSSPNVDVAEENLRCYENTAVFLLSNFQYLIVALVYCDGEPYRENIS”, 41000.
Take “KATYHAMLHICRDIAKETLFFFHLVQEHPDDLPLVQSVLILLISCISRVVCTL”: the “transcriptional activation domain activity” value was found to be 55000.
Consider “LSHFLAGLHHSVLLAYFLYFFVLPFSLLCYSIFLLYFSFGLDGIILLFYYFIF”, for which the “transcriptional activation domain activity” value is 37100.
For the sequence “RKSELIAKYGLLPRDLRKIDSSVLPHILVRHSAILISLLHLRVLIKADRVLVF”, the “transcriptional activation domain activity” value was 57200.
As to “KAAPEDKEPEPVAVSYKVNDTVMAKWVSGDKGYYPARITSVTGSSTDPIYVVK”, the “transcriptional activation domain activity” value was 19800.
As to “WIVALAIIVSDYYGVVKGGVAYGLLASSNTSMAVFIFVWHLGGIWMITMLACM”, the “transcriptional activation domain activity” value stood at 65100.
With “MFLLVLYPILHLLFLPCKYQYFQIFIRLLSQLPLLFFFCNTFWFFSTSVFFLN”, the “transcriptional activation domain activity” value worked out at 69600.
Consider “HQLGATESGLRAKNDGKLVQAEARAEGRVTFRTYLTYVRAAGTWTWMMTIFFL”, for which the “transcriptional activation domain activity” value worked out at 52800.
As for “VLSSSLCFPLPPLSPPFLPSLCFPLPPFFPFPPFPLFPPFLPFPLFPLCFPLP”, the figure is 48300; as for “QCGLICTLYFANRYGIILGSLPFALQPFIHWTSKGWCLIFRIYLLIYASFVLL”, 43200.
As for “SSCAPIPMVDFDINESNMVMGNYFDDFASFMDNVPIPNSVFSPSYQPLFAFLP”, the “transcriptional activation domain activity” value worked out at 114000.
For “EAEEEESEKKDKKRKKDKEGKKKKKSKSSEEKETEEEKVEEKKSEESSESKKD”, the “transcriptional activation domain activity” value was less than 6570.
As for “YTYLSNAQLILSICSLYSCSPYLDPYMLLPLLRWAFLYVFLLVLAFAAVLFSA”, the figure is 41800; as for “MHILVELAVFLICRCSQIWRTWVQGGKLAISHNKLVRPTFFRRLLHCIWLFRL”, 72200.
Take “MLLHVFRLIEIIEILWISCICAILLVVFVILEVCNLFVLGRKISFLMFCVWVI”: the “transcriptional activation domain activity” value came to 54400.
Consider “LKIKLLVVWFWLLDAIHICMLCSSNWRDLIVHYGDRRTLDYIPPTTALAILFT”, for which the “transcriptional activation domain activity” value is 79600.
Regarding “LCFVFVLNIQAVLAVLWVIATKWIVIGRRRDGQYAWDSSSYCQRWQLHLVLSR”, the “transcriptional activation domain activity” value was 71600.
As for “VLLLKTLLSPVVVPDLDDHSLVLKQFKTFHWQRKNLTSVINILAQALYSLFAA”, the figure is 27800; as for “YFVVRGFLFSSAVGCLGLRLGLGLFKRVIYWDQKLLLFLFLFPFFFPPLFSTR”, 60900; as for “MKPITPKLEEQEPAAYGAAASAATVPTTKRKCVSSACVPCRRRKSKVTPRNPL”, 34500.
Regarding “PLLTLNGLNCFFSLIYLINLLYSLKLFLQYFFFCLPFHIFILLMHSFLYYIFY”, the “transcriptional activation domain activity” value was found to be 62400.
In the case of “EPKKAKIGAPKRKKKEVIEDAEAGAGAETEEGEAPPKKKRGGRKAKPAKEEPV”, the “transcriptional activation domain activity” value was 15600.
As for “RLSSSSKSKRSLRHPQRALCSSRAWEEDGGGNPNGGRGFVVRIRRFGRARLHS”, the figure is 62500; as for “LLIFYFLFSCICIHFQQHLGLPLYLFNQDWYYAWQALAKQYFGLLLITMTKWW”, 53400.
As to “GPDPFQQLSSAEHPNNHSSDDEHSGSQPLPLDSITIGIPPTLHTIPMILSKDN”, the “transcriptional activation domain activity” value was 62900.
As for “LLTGSSALLLPVIWPRLSASLRFPVVLLLPLPYIFTYLCVYPPTPFSPHITPT”, the “transcriptional activation domain activity” value is 59300.
In the case of “MNCGIGFLNFHSQTSFKFLLFILFHFNFFAYLPLLTSCYSRLFSFSFSTIYFI”, the “transcriptional activation domain activity” value is 61200.
For “SSIRQMLKISLVRPLHMLLTEPVLFLFAVSLHPFRPRIYLMLEAIPLVFTRLY”, the “transcriptional activation domain activity” value was found to be 40900.
Under “VYTVMILSTIFGICYVPFGVFICDSLKAYPGEVTNCSHQMQNLATIFFILFSV” stands 57000; under “MVFFFFGRRGGCLVGFVVLLSFPLSFFLSFKLCLLLPLYYYSICVFFFSCVFF”, 55600; under “RGLVLCLCLCITLKTAFHMIAVYQPLHPLFTSIDLGHLQPQPFCKLGMILGIM”, 65900.
